What was measured:
Assay in all cases: cell-based or functional assay
HIV-1 Env of REJO.67 = HIV-1 Env of REJO.67 (HIV-1)
HIV-1 Env of 191821.E6.1 = HIV-1 Env of 191821.E6.1 (HIV-1)
HIV-1 Env of DU156.12 = HIV-1 Env of DU156.12 (HIV-1)
HIV-1 Env of ZM233.6 = HIV-1 Env of ZM233.6 (HIV-1)
HIV-1 Env of TRO.11 = HIV-1 Env of TRO.11 (HIV-1)
HIV-1 Env of CAP256.SU = HIV-1 Env of CAP256.SU (HIV-1)
Env of SIVmac251.30 = Env of SIVmac251.30 (SIV (printed as nonHIV))
HIV-1 Env of UG037.8 = HIV-1 Env of UG037.8 (HIV-1)
HIV-1 Env of TRJO.58 = HIV-1 Env of TRJO.58 (HIV-1)
HIV-1 Env of C1080.c3 = HIV-1 Env of C1080.c3 (HIV-1)
HIV-1 Env of MB201 = HIV-1 Env of MB201 (HIV-1)
HIV-1 Env of Q259.d2.17 = HIV-1 Env of Q259.d2.17 (HIV-1)
HIV-1 Env of 6405.v4.c34 = HIV-1 Env of 6405.v4.c34 (HIV-1)
HIV-1 Env of 96ZM651.02 = HIV-1 Env of 96ZM651.02 (HIV-1)
HIV-1 Env of ZM197.7 = HIV-1 Env of ZM197.7 (HIV-1)
HIV-1 Env of Q23.17 = HIV-1 Env of Q23.17 (HIV-1)
HIV-1 Env of TH976.17 = HIV-1 Env of TH976.17 (HIV-1)
HIV-1 Env of DU422.01 = HIV-1 Env of DU422.01 (HIV-1)
HIV-1 Env of QH0692.42 = HIV-1 Env of QH0692.42 (HIV-1)
HIV-1 Env of ZM214.15 = HIV-1 Env of ZM214.15 (HIV-1)
HIV-1 Env of CAAN.A2 = HIV-1 Env of CAAN.A2 (HIV-1)
HIV-1 Env of CAP45.G3 = HIV-1 Env of CAP45.G3 (HIV-1)
HIV-1 Env of CNE3 = HIV-1 Env of CNE3 (HIV-1)
HIV-1 Env of DU172.17 = HIV-1 Env of DU172.17 (HIV-1)
HIV-1 Env of KER2008.12 = HIV-1 Env of KER2008.12 (HIV-1)
HIV-1 Env of WITO.33 = HIV-1 Env of WITO.33 (HIV-1)
HIV-1 Env of 0260.v5.c36 = HIV-1 Env of 0260.v5.c36 (HIV-1)
HIV-1 Env of RHPA.7 = HIV-1 Env of RHPA.7 (HIV-1)
HIV-1 Env of MB539.2B7 = HIV-1 Env of MB539.2B7 (HIV-1)
HIV-1 Env of ZM53.12 = HIV-1 Env of ZM53.12 (HIV-1)
HIV-1 Env of THRO.18 = HIV-1 Env of THRO.18 (HIV-1)
HIV-1 Env of 3016.V5.c36 = HIV-1 Env of 3016.V5.c36 (HIV-1)
HIV-1 Env of Q842.d12 = HIV-1 Env of Q842.d12 (HIV-1)
HIV-1 Env of CM244.ec1 = HIV-1 Env of CM244.ec1 (HIV-1)
HIV-1 Env of CAP244.D3 = HIV-1 Env of CAP244.D3 (HIV-1)
HIV-1 Env of 6535.3 = HIV-1 Env of 6535.3 (HIV-1)
HIV-1 Env of ZM249.1 = HIV-1 Env of ZM249.1 (HIV-1)
HIV-1 Env of CAP210.E8 = HIV-1 Env of CAP210.E8 (HIV-1)
HIV-1 Env of KER2018.11 = HIV-1 Env of KER2018.11 (HIV-1)
HIV-1 Env of PVO.04 = HIV-1 Env of PVO.04 (HIV-1)
HIV-1 Env of SC422.8 = HIV-1 Env of SC422.8 (HIV-1)
HIV-1 Env of BG505.w6m = HIV-1 Env of BG505.w6m (HIV-1)
HIV-1 Env of ZM135.10a = HIV-1 Env of ZM135.10a (HIV-1)
HIV-1 Env of ZM109.4 = HIV-1 Env of ZM109.4 (HIV-1)
HIV-1 Env of Q461.e2 = HIV-1 Env of Q461.e2 (HIV-1)
HIV-1 Env of Q769.d22 = HIV-1 Env of Q769.d22 (HIV-1)
HIV-1 Env of RW020.2 = HIV-1 Env of RW020.2 (HIV-1)
HIV-1 Env of AC10.29 = HIV-1 Env of AC10.29 (HIV-1)
HIV-1 Env of Q168.a2 = HIV-1 Env of Q168.a2 (HIV-1)
HIV-1 Env of CAP256.PI = HIV-1 Env of CAP256.PI (HIV-1)

B1: CAP256-VRC26.06 (antibody, V domains shown)
VH: EVQLIESGGGVVQPGRSLRLSCGASGFSFNNYGMHWVRQAPGKGLEWVAGISFAGIKKYYGTSVKGRFTISRDNSKNNFYLQMNSLRVEDTALYYCARDLRELECEEWTLYNYYDFGSRGPCVDPRGVAGSFDVWGQGTMVTVSS
VL: QSVLTQPPSVSAAPGQKVTISCSGSTSKIGQNSVSWYQQLPGTAPKLLIYENDRRPSGTPDRFSGSKSGTSATLAITGLQTGDEAEYYCETWDGSGGVFGTGTKVTVLG
HIV-1 Env of REJO.67
  neutralization IC50: > 50 µg/mL
HIV-1 Env of 191821.E6.1
  neutralization IC50: > 50 µg/mL
HIV-1 Env of DU156.12
  neutralization IC50: > 50 µg/mL
HIV-1 Env of ZM233.6
  neutralization IC50: > 50 µg/mL
HIV-1 Env of TRO.11
  neutralization IC50: > 50 µg/mL
HIV-1 Env of CAP256.SU
  neutralization IC50: 0.055 µg/mL
Env of SIVmac251.30
  neutralization IC50: > 50 µg/mL
HIV-1 Env of UG037.8
  neutralization IC50: > 50 µg/mL
HIV-1 Env of TRJO.58
  neutralization IC50: > 50 µg/mL
HIV-1 Env of C1080.c3
  neutralization IC50: > 50 µg/mL
HIV-1 Env of MB201
  neutralization IC50: > 50 µg/mL
HIV-1 Env of Q259.d2.17
  neutralization IC50: > 50 µg/mL
HIV-1 Env of 6405.v4.c34
  neutralization IC50: > 50 µg/mL
HIV-1 Env of 96ZM651.02
  neutralization IC50: > 50 µg/mL
HIV-1 Env of ZM197.7
  neutralization IC50: > 50 µg/mL
HIV-1 Env of Q23.17
  neutralization IC50: > 50 µg/mL
HIV-1 Env of TH976.17
  neutralization IC50: > 50 µg/mL
HIV-1 Env of DU422.01
  neutralization IC50: > 50 µg/mL
HIV-1 Env of QH0692.42
  neutralization IC50: > 50 µg/mL
HIV-1 Env of ZM214.15
  neutralization IC50: > 50 µg/mL
HIV-1 Env of CAAN.A2
  neutralization IC50: > 50 µg/mL
HIV-1 Env of CAP45.G3
  neutralization IC50: > 50 µg/mL
HIV-1 Env of CNE3
  neutralization IC50: > 50 µg/mL
HIV-1 Env of DU172.17
  neutralization IC50: > 50 µg/mL
HIV-1 Env of KER2008.12
  neutralization IC50: > 50 µg/mL
HIV-1 Env of WITO.33
  neutralization IC50: 0.003 µg/mL
HIV-1 Env of 0260.v5.c36
  neutralization IC50: > 50 µg/mL
HIV-1 Env of RHPA.7
  neutralization IC50: > 50 µg/mL
HIV-1 Env of MB539.2B7
  neutralization IC50: > 50 µg/mL
HIV-1 Env of ZM53.12
  neutralization IC50: 0.222 µg/mL
HIV-1 Env of THRO.18
  neutralization IC50: 4.25 µg/mL
HIV-1 Env of 3016.V5.c36
  neutralization IC50: > 50 µg/mL
HIV-1 Env of Q842.d12
  neutralization IC50: > 50 µg/mL
HIV-1 Env of CM244.ec1
  neutralization IC50: > 50 µg/mL
HIV-1 Env of CAP244.D3
  neutralization IC50: > 50 µg/mL
HIV-1 Env of 6535.3
  neutralization IC50: > 50 µg/mL
HIV-1 Env of ZM249.1
  neutralization IC50: > 50 µg/mL
HIV-1 Env of CAP210.E8
  neutralization IC50: 0.729 µg/mL
HIV-1 Env of KER2018.11
  neutralization IC50: > 50 µg/mL
HIV-1 Env of PVO.04
  neutralization IC50: 0.308 µg/mL
HIV-1 Env of SC422.8
  neutralization IC50: 0.178 µg/mL
HIV-1 Env of BG505.w6m
  neutralization IC50: > 50 µg/mL
HIV-1 Env of ZM135.10a
  neutralization IC50: > 50 µg/mL
HIV-1 Env of ZM109.4
  neutralization IC50: > 50 µg/mL
HIV-1 Env of Q461.e2
  neutralization IC50: > 50 µg/mL
HIV-1 Env of Q769.d22
  neutralization IC50: > 50 µg/mL
HIV-1 Env of RW020.2
  neutralization IC50: > 50 µg/mL
HIV-1 Env of AC10.29
  neutralization IC50: 0.022 µg/mL
HIV-1 Env of Q168.a2
  neutralization IC50: > 50 µg/mL
HIV-1 Env of CAP256.PI
  neutralization IC50: 0.03 µg/mL

Reference: patent US20200199204A1 (UNITED STATES OF AMERICA AS REPRESENTED BY THE SECRETARY …, published 2020)
